Results: patent US20120009199A1 (AstraZeneca / MedImmune, published 2012)

Target: the molecule itself
Experiment: stopped-flow kinetics with light scattering detection, dilution from 10 to 1 mg/ml at 4 C, self-association
Source text: High molecular weight forms are known to cause increased intensity of light scattering compared to monomer. Dissociation of the MabA present in the HPSEC shoulder, (apparent molecular weight of 213 kDa) would, therefore, be expected to result in a decrease in light scattering.

B1: MabA (antibody, human IgG2, V domains shown)
VH: QVQLVESGGGLVKPGGSLRLSCAASGFTFSDYYMNWIRQAPGKGLEWVSYISSSGSIIYYADSVKGRFTISRDNAKNSLYLQMNSLRAEDTAVYYCAREGRIAARGMDVWGQGTTVTVSS
VL: DIQMTQSPSSLSASVGDRVTITCRPSQSFSRYINWYQQKPGKAPKLLIYAASSLVGGVPSRFSGSGSGTDFTLTISSLQPEDFATYYCQQTYSNPPITFGQGTRLEIK
notes: Full-length human IgG2; also called anti-PDGFR-alpha antibody; human IgG2 anti-PDGFR-alpha antibody
- apparent half-life of dissociation of the self-associated species: 14 s
